Source: patent US20240252614A1 (Pfizer, published 2024)

Experiments:
[1] = biological target: T1, hMPV123 (hMPV B, UniProt Q6WB98 19-102); test: BLI, 56C stress
T1 construct: A140C-S149C, G239A, T411C-Q434C
Method: (§1) All measurements were conducted at 30° C. temperature in 96-well black plates (Corning, Corning, NY) with a final volume of 240 μL per well at a constant agitation rate of 1000 RPM.
(§2) Conformation integrity of hMPV B F protein mutants were evaluated by a thermal stress experiment. Crude cell culture supernatants were normalized based on the results of the titer quantitation and then incubated for 1 hour at room temperature and two higher temperatures. For the testing of hMPV B single mutants, the two temperatures were 53° C. and 56° C. After the incubation, the protein mutants were probed with prefusion specific monoclonal antibody hMPV-2 by OCTET HTX. Anti-Human IgG Fc Capture (AHC) biosensors were first equilibrated in PB before being dipped into more PB for to establish the initial baseline. Biosensors were incubated with hMPV-2 before being equilibrated in PB to establish the experimental baseline. The mAb-bound biosensors were then dipped into the thermal stresses cell culture supernatants for 5 minutes.

[2] = biological target: T2, hMPV124 (hMPV B, UniProt Q6WB98 19-102); test: BLI, 56C stress
T2 construct: L141C-A161C, T411C-Q434C, A459P
Method: as §1, §2

[3] = biological target: T3, hMPV128 (hMPV B, UniProt Q6WB98 19-102); test: BLI, 56C stress
T3 construct: T49I, A140C-S149C, G239A, T411C-Q434C, A459P
Method: as §1, §2

[4] = biological target: T4, hMPV131 (hMPV B, UniProt Q6WB98 19-102); test: BLI, 56C stress
T4 construct: T49I, L141C-A161C, G239A, T411C-Q434C, A459P
Method: as §1, §2

[5] = biological target: T5, hMPV133 (hMPV B, UniProt Q6WB98 19-102); test: BLI, 56C stress
T5 construct: T49I, L141C-A161C, S149T, G239A, T411C-Q434C, A459P
Method: as §1, §2

[6] = biological target: T6, hMPV142 (hMPV B, UniProt Q6WB98 19-102); test: BLI, 56C stress
T6 construct: L141C-A161C, S149T, A459P
Method: as §1, §2

[7] = biological target: T7, hMPV144 (hMPV B, UniProt Q6WB98 19-102); test: BLI, 56C stress
T7 construct: T49I, L141C-A161C, S149T, A459P
Method: as §1, §2

[8] = biological target: T8, PIV1042 (PIV1); test: BLI, 53C stress;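 also: binding of thermally stressed PIV1 F mutant supernatant to mAb on AHC biosensors for 5 min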
T8 construct: Q92A
Method: as §1
(§3) Conformation integrity of PIV1 F protein mutants were evaluated by a thermal stress experiment. Crude cell culture supernatants were normalized based on the results of the titer quantitation and then incubated for 1 hour at room temperature and two higher temperatures. For the initial testing of PIV1 mutants, the two temperatures were 50° C. and 53° C. […] Anti-Human IgG Fc Capture (AHC) biosensors were first equilibrated in PB for before being dipped into more PB to establish the initial baseline. […] The mAb-bound biosensors were then dipped into the thermal stresses cell culture supernatants for 5 minutes.

[9] = biological target: T9, PIV1043 (PIV1); test: BLI, 53C stress;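 also: binding of thermally stressed PIV1 F mutant supernatant to mAb on AHC biosensors for 5 min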
T9 construct: Q92A, G134A
Method: as §1, §3

[10] = biological target: T10, PIV1044 (PIV1); test: BLI, 53C stress;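 also: binding of thermally stressed PIV1 F mutant supernatant to mAb on AHC biosensors for 5 min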
T10 construct: Q92L
Method: as §1, §3

[11] = biological target: T11, PIV1045 (PIV1); test: BLI, 53C stress;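 also: binding of thermally stressed PIV1 F mutant supernatant to mAb on AHC biosensors for 5 min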
T11 construct: Q92L, G134A
Method: as §1, §3

[12] = biological target: T12, PIV1046 (PIV1); test: BLI, 53C stress
T12 construct: A466V, S473V
Method: as §1, §3

[13] = biological target: T13, PIV1 F literature prefusion comparison (PIV1); test: BLI, 53C stress
T13 construct: F113G, F114S, A466I, S473I (Stewart-Jones et al. 2018)
Method: (§4) The OCTET HTX (Sartorius, Gottingen, Germany) instrument was used to evaluate the expression and conformational integrity for each mutant. All measurements were conducted at 30° C. temperature in 96-well black plates (Corning, Corning, NY) with a final volume of 240 μL per well at a constant agitation rate of 1000 RPM.
as §3

[14] = biological target: T14, PIV1047 (PIV1); test: BLI, 53C stress
T14 construct: F113G, F114S, Q92C-G134C, A466L, S473L, A480L
Method: as §4, §3

[15] = biological target: T15, PIV1048 (PIV1); test: BLI, 53C stress
T15 construct: Q92C-G134C, A466L, S473L, A480L
Method: as §4, §3

[16] = biological target: T16, PIV1049 (PIV1); test: BLI, 53C stress
T16 construct: Q92C-G134C, A466L, S473L
Method: as §4, §3

[17] = biological target: T17, PIV1050 (PIV1); test: BLI, 53C stress
T17 construct: F113G, F114S, Q92C-G134C, A466V, S473V, A480V
Method: as §4, §3

[18] = biological target: T18, PIV1051 (PIV1); test: BLI, 53C stress
T18 construct: Q92C-G134C, A466V, S473V, A480V
Method: as §4, §3

[19] = biological target: T19, PIV1052 (PIV1); test: BLI, 53C stress
T19 construct: Q92C-G134C, A466V, S473V; also called PV1052
Method: as §4, §3

[20] = biological target: T20, PIV1053 (PIV1); test: BLI, 53C stress
T20 construct: F113G, F114S, A466L, S473L, A480L, G134A
Method: as §4, §3

[21] = biological target: T21, PIV1055 (PIV1); test: BLI, 53C stress
T21 construct: A466L, S473L, G134A
Method: as §4, §3

[22] = biological target: T22, PIV1056 (PIV1); test: BLI, 53C stress
T22 construct: F113G, F114S, A466L, S473L, A480L, Q92A, G134A
Method: as §4, §3

[23] = biological target: T23, PIV1057 (PIV1); test: BLI, 53C stress
T23 construct: A466L, S473L, A480L, Q92A, G134A
Method: as §4, §3

[24] = biological target: T24, PIV1058 (PIV1); test: BLI, 53C stress
T24 construct: A466L, S473L, Q92A, G134A
Method: as §4, §3

[25] = biological target: T25, PIV1059 (PIV1); test: BLI, 53C stress
T25 construct: F113G, F114S, A466L, S473L, A480L, G134A, Q92L
Method: as §4, §3

[26] = biological target: T26, PIV1060 (PIV1); test: BLI, 53C stress
T26 construct: Q92L, G134A, A466L, S473L, A480L
Method: as §4, §3

[27] = biological target: T27, PIV1061 (PIV1); test: BLI, 53C stress
T27 construct: Q92L, G134A, A466L, S473L
Method: as §4, §3

[28] = biological target: T28, PIV1062 (PIV1); test: BLI, 53C stress
T28 construct: F113G, F114S, A466L, S473L, A480L, Q92A, G134L
Method: as §4, §3

[29] = biological target: T29, PIV1063 (PIV1); test: BLI, 53C stress
T29 construct: A466L, S473L, A480L, Q92A, G134L
Method: as §4, §3

[30] = biological target: T30, PIV1064 (PIV1); test: BLI, 53C stress
T30 construct: F113G, F114S, Q92C-G134C, A466I, S473I, A480L
Method: as §4, §3

[31] = biological target: T31, PIV1065 (PIV1); test: BLI, 53C stress
T31 construct: F113G, F114S, Q92C-G134C, A466I, S473I
Method: as §4, §3

[32] = biological target: T32, PIV1066 (PIV1); test: BLI, 53C stress
T32 construct: A466I, S473I, A480L, Q92L, G134A
Method: as §4, §3

[33] = biological target: T33, PIV1067 (PIV1); test: BLI, 53C stress
T33 construct: F113G, F114S, Q92C-G134C, A466I, S473I, A480I
Method: as §4, §3

[34] = biological target: T34, PIV1068 (PIV1); test: BLI, 53C stress
T34 construct: A466I, S473I, A480I, Q92L, G134A
Method: as §4, §3

B1: hMPV-2 mAb (antibody, V domains shown)
VH: QVQLQQSGAEVKKPGASVKVSCKASGYTFTSYGISWVRQAPGQGLEWMGWISGYNGNTNYAQTFQGTFTMTTDTSTSTAYMELRRLRSGDTAVYYCARDRYYASGSYNGMDVWGQGTTVTVSS
VL: QSALTQPPSASGAPGQRVTVSCSGSSSNVGSSSVYWYQQLPGTAPKLLIYRNNQRPSGVPDRFSGSKSGTSASLAISGLRSEDEADYYCAAWDDSLSGWVFGGGTKLTVLG
notes: human IgG1
Response Shift [1]: 0.559 nm | Response Shift [2]: 0.766 nm | Response Shift [3]: 0.769 nm | Response Shift [4]: 0.657 nm | Response Shift [5]: 0.616 nm | Response Shift [6]: 0.706 nm | Response Shift [7]: 0.67 nm

B2: PIV1-8 mAb (antibody, V domains shown)
VH: QVQLVQSGAEVKKPGSSVKVSCEASGGTFSNYVISWVRQAPGQGLEWMGGIIPVFATAKYAQKFQGRVTIIADQSTNTAYLELSSLRSDDTAVYFCASVDSGGTWWDAFAIWGQGTMVTVSS
VL: QAVVTQPRSVSGSPGQAVTISCTGTSSDVGGYNYVSWYQHHPGKAPKLIIYDVTKRPSGVPDRFSGSKSGNTASLTISGLQTEYEADYYCCSYAGSYTLVFGGGTKLTVLG
notes: human IgG1; also called hPIV1-8 mAb; hPIV1-8
Response Shift [8]: -0.052 nm | Response Shift [9]: -0.012 nm | Response Shift [10]: -0.007 nm | Response Shift [11]: -0.054 nm | Response Shift [12]: -0.059 nm | Response Shift [13]: 0.646 nm | Response Shift [14]: 0.862 nm | Response Shift [15]: 0.783 nm | Response Shift [16]: 0.883 nm | Response Shift [17]: 0.907 nm | Response Shift [18]: 0.744 nm | Response Shift [19]: -0.026 nm | Response Shift [20]: 0.901 nm | Response Shift [21]: 0.787 nm | Response Shift [22]: 0.805 nm | Response Shift [23]: 0.808 nm | Response Shift [24]: 0.704 nm | Response Shift [25]: 0.903 nm | Response Shift [26]: 0.671 nm | Response Shift [27]: 0.648 nm | Response Shift [28]: 0.714 nm | Response Shift [29]: -0.036 nm | Response Shift [30]: 0.897 nm | Response Shift [31]: 0.816 nm | Response Shift [32]: 0.722 nm | Response Shift [33]: 0.896 nm | Response Shift [34]: 0.65 nm
